Experimental data reported in patent US20050277588A1 (AFFYMAX, published 2005).
Where no end group is shown, it is not given here. The star is where a group is joined. Biotin = O=C1N[C@H]2[C@H](CS[C@H]2CCCCC(=O)*)N1

T1: granulocyte-colony stimulating factor receptor (G-CSFR), purified / soluble receptor used in the binding … (UniProt Q99062 25-627, limits assumed)
T1 construct: also called G-CSF receptor; soluble G-CSFR harvest
T1 sequence (looked up): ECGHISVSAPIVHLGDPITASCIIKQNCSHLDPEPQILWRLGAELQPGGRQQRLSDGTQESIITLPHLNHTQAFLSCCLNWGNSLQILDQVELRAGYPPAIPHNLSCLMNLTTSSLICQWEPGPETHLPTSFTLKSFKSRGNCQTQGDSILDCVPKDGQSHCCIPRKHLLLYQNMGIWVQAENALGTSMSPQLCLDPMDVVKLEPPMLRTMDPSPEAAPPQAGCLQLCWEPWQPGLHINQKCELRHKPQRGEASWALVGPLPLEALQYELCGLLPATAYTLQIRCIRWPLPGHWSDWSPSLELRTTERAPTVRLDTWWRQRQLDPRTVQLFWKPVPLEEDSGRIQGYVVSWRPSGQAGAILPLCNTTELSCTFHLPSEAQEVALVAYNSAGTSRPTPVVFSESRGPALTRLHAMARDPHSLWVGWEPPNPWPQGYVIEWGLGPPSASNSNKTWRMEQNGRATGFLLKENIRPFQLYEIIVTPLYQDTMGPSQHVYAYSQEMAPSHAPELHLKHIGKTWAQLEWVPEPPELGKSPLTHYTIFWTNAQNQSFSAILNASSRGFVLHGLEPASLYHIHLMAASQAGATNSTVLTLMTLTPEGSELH

B1: Example 37 dimer of NH2-STAERLWFCG-CONH2 (peptide)
peptide: H-STAERLWFCG-NH2
modifications: also: homodimer via interchain disulfide between the Cys residues
notes: also called Ex. No. 37; Ex. 76
B2: Example 56 peptide LGIEGRTGGGLLDICELKLQECARRCN (peptide)
peptide: LGIEGRTGGGLLDICELKLQECARRCN
notes: also called Ex. No. 56
B3: Example 55 peptide GRTGGGLLDICELKLQECARRCN (peptide)
peptide: GRTGGGLLDICELKLQECARRCN
notes: also called Ex. No. 55
B4: Example 60 peptide Biotin-KLLDICELKLQEAARRCN (peptide)
peptide: Biotin-KLLDICELKLQEAARRCN
modifications: cysteine pairing not given here
notes: also called Ex. No. 60
B5: Example 63 peptide Biotin-KGGGMLAERKAEERRWFNTHGRE (peptide)
peptide: Biotin-KGGGMLAERKAEERRWFNTHGRE
notes: also called Ex. No. 63
B6: Example 67 dimer of CSTGGGLTAERDAEKRRWLLTHGGE (peptide)
peptide: CSTGGGLTAERDAEKRRWLLTHGGE
modifications: also: homodimer linked through the N-terminal Cys residues
notes: also called Ex. No. 67
B7: Example 45 peptide NH2-EQSNSGWVWVGGGGC-CONH2 (monomer) (peptide)
peptide: H-EQSNSGWVWVGGGGC-NH2
notes: also called Ex. No. 45
B8: Example 51 peptide DLWYLESKLEECARRCNG (peptide)
peptide: H-DLWYLESKLEECARRCNG-NH2
modifications: not fully specified (bridges); cysteine pairing not given here
notes: also called Ex. No. 51
B9: Example 52 dimer of DLWYLESKLEEAARRCNG (peptide)
peptide: H-DLWYLESKLEEAARRCNG-NH2
modifications: also: homodimer via interchain disulfide between the Cys residues
notes: also called Ex. No. 52
B10: Example 50 dimer of DLWYLESKLEECARRANG (peptide)
peptide: H-DLWYLESKLEECARRANG-NH2
modifications: also: disulfide at 12, other end not in the chain
notes: T0034 draws this dimer as [H]-...-[NH2]; also called Ex. No. 50
B11: Example 53 peptide LLDICELKLQECARRCN (AF15846), oxidation state as tested not stated (peptide)
peptide: H-LLDICELKLQECARRCN-OH
modifications: also: oxidation state as tested not given here, active only after oxidation, as a dimer
notes: also called Ex. No. 53; Ex. 78 peptide
B12: Example 58 peptide LLDICELKLQEAARRCN (peptide)
peptide: H-LLDICELKLQEAARRCN-OH
modifications: not fully specified (bridges); cysteine pairing not given here
notes: also called Ex. No. 58
B13: Example 57 peptide LLDICELKLQECARRAN (peptide)
peptide: LLDICELKLQECARRAN
modifications: not fully specified (bridges); cysteine pairing not given here
notes: also called Ex. No. 57
B14: Example 59 peptide Biotin-LLDICELKLQECARRAN (peptide)
peptide: Biotin-LLDICELKLQECARRAN
modifications: cysteine pairing not given here
notes: also called Ex. No. 59
B15: Example 61 peptide LLDIAELKLQECARRCN (peptide)
peptide: H-LLDIAELKLQECARRCN-OH
modifications: not fully specified (bridges); cysteine pairing not given here
notes: also called Ex. No. 61
B16: Example 62 peptide Biotin-KLLDIAELKLQECARRCN (peptide)
peptide: Biotin-KLLDIAELKLQECARRCN
modifications: cysteine pairing not given here
notes: also called Ex. No. 62
B17: Example 70 peptide YLELCQLRLEECARQFN (peptide)
peptide: YLELCQLRLEECARQFN
notes: also called Ex. No. 70
B18: Example 54 peptide GGGLLDICELKLQECARRCN (peptide)
peptide: GGGLLDICELKLQECARRCN
notes: also called Ex. No. 54
B19: Example 35 peptide NH2-EQSNSGWVWV-CONH2 (peptide)
peptide: H-EQSNSGWVWV-NH2
notes: also called Ex. No. 35; Ex. 74
B20: Example 46 dimer of NH2-EQSNSGWVWVGGGGC-CONH2 (peptide)
peptide: H-EQSNSGWVWVGGGGC-NH2
modifications: also: homodimer linked through the C-terminal Cys residues
notes: also called Ex. No. 46
B21: Example 71 peptide CGCHVSPVQIKALC (peptide)
peptide: CGCHVSPVQIKALC
notes: also called Ex. No. 71
B22: Example 49 peptide ALLMCESKLAECARAR (peptide)
peptide: ALLMCESKLAECARAR
notes: also called Ex. No. 49
B23: Example 47 peptide CESRLVECSRM (peptide)
peptide: CESRLVECSRM
notes: also called Ex. No. 47
B24: Example 64 lysine-linked dimer MLAERKAEERRWFNTHGRE / MLAERKAEERRWFNTHGREK (peptide)
peptide 1: MLAERKAEERRWFNTHGRE
peptide 2: MLAERKAEERRWFNTHGREK-NH2
modifications: also: chain 1 C-terminus joined to the C-terminal Lys of chain 2 (branch link drawn)
notes: also called Ex. No. 64
B25: Example 48 peptide LAHCLLRLEECAAG (peptide)
peptide: LAHCLLRLEECAAG
notes: also called Ex. No. 48
B26: Example 15 peptide CETLCGACFC (peptide)
peptide: CETLCGACFC
notes: also called Ex. No. 15
B27: Example 11 peptide CFWSDWGQTC (peptide)
peptide: CFWSDWGQTC
notes: also called Ex. No. 11
B28: Example 10 peptide CTWTDLESVY (peptide)
peptide: CTWTDLESVY
notes: also called Ex. No. 10
B29: Example 9 peptide CHANPVWGEC (peptide)
peptide: CHANPVWGEC
notes: also called Ex. No. 9
B30: Example 8 peptide CQRAGYMLAC (peptide)
peptide: CQRAGYMLAC
notes: also called Ex. No. 8

target: T1, granulocyte-colony stimulating factor …; experiment: SPA competition with 125I-G-CSF on G-CSFR-coated beads; grade defined in paragraph 137
Experimental: (§1) Streptavidin-coated scintillation proximity assay (SPA) beads (Amersham) were mixed with biotinylated anti-receptor immobilizing antibody (Ab179) followed by incubation with soluble G-CSFR harvest. Receptor-coated SPA beads were washed twice in PBS/0.1% BSA and distributed to wells of a white polystyrene 96-well microtiter plate (Packard). Serial dilutions of peptide or peptide mimetic were mixed with a constant amount of ¹²⁵I labeled G-CSF (10⁵ cpm; 1290 Ci/mmol) in PBS/0.1% BSA, added to wells containing receptor-coated SPA beads, and incubated overnight at 4° C. The binding of radiolabeled G-CSF to the receptor-coated SPA bead brings the isotope in close proximity to the scintillant, which allows the emitted radiation to stimulate the scintillant to emit light. […] The amount of ¹²⁵I labeled G-CSF that was bound at equilibrium was measured by counting the plate in a TopCount (Wallac) microtiter plate luminometer. The assay is conducted over a range of peptide concentrations and the results are graphed such that the y-axis represents the amount of bound ¹²⁵I labeled G-CSF and the x-axis represents the concentration of peptide or peptide mimetic. One can determine the concentration at which the peptide or peptide mimetic will reduce by 50% (IC₅₀) the amount of ¹²⁵I labeled G-CSF bound to immobilized G-CSFR. The dissociation constant (Kd) for the peptide should be similar to the measured IC₅₀ using the assay conditions described above.

| IC50 [µM] | Binder |
| --- | --- |
| ≤ 200 | B1 |
| ≤ 0.5 | B2 |
| ≤ 0.5 | B3 |
| ≤ 200 | B4 |
| ≤ 200 | B5 |
| ≤ 200 | B6 |
| ≤ 200 | B7 |
| ≤ 200 | B8 |
| ≤ 200 | B9 |
| ≤ 200 | B10 |
| ≤ 0.5 | B11 |
| ≤ 200 | B12 |
| ≤ 200 | B13 |
| ≤ 200 | B14 |
| ≤ 200 | B15 |
| ≤ 200 | B16 |
| ≤ 200 | B17 |
| ≤ 0.5 | B18 |
| ≤ 200 | B19 |
| ≤ 200 | B20 |
| ≤ 200 | B21 |

target: T1, granulocyte-colony stimulating factor …; experiment: SPA competition with 125I-G-CSF on G-CSFR-coated beads; hybrid grade, at or near the cutoff
Experimental: as §1

| IC50 [µM] | Binder |
| --- | --- |
| ~200 | B22 |
| ~200 | B23 |
| ~200 | B24 |
| ~200 | B25 |

target: T1, granulocyte-colony stimulating factor …; experiment: specific binding to G-CSFR (total minus non-specific binding with excess unlabeled ligand)

| binding result | Binder |
| --- | --- |
| no binding | B26 |
| no binding | B27 |
| no binding | B28 |
| no binding | B29 |
| no binding | B30 |
